Measured values reported in patent EP4585618A1 (Jiangsu Hengrui Pharmaceuticals Co., Ltd., dated 2025).
Changes are numbered by the printed parent chain. Values belong to the binder of their own block, whether it stands above or below them.

What was measured:
[1] = target: T1, His-tagged ILT4 protein extracellular domain: ILT4-His (human, UniProt Q8N423 22-460); assay: ELISA, coated ILT4-His 1 µg/mL; Assay 2
T1 construct: Expressed in 293 cells; also called human ILT4-His protein

[2] = target: T1, His-tagged ILT4 protein extracellular …; assay: SPR (Biacore), antibody captured on Protein A chip, ILT4-His as analyte, 1:1 model
[3] = target: T1, His-tagged ILT4 protein extracellular …; assay: screening of chimeric antibodies (ILT4 protein binding, cell binding, ILT4/HLA-G blocking)
[4] = target: T1, His-tagged ILT4 protein extracellular …; assay: ELISA, coated ILT4-His 1 µg/mL; Assay 5

T1 sequence (Q8N423 other isoform, or with tags, fused parts or gaps limits assumed): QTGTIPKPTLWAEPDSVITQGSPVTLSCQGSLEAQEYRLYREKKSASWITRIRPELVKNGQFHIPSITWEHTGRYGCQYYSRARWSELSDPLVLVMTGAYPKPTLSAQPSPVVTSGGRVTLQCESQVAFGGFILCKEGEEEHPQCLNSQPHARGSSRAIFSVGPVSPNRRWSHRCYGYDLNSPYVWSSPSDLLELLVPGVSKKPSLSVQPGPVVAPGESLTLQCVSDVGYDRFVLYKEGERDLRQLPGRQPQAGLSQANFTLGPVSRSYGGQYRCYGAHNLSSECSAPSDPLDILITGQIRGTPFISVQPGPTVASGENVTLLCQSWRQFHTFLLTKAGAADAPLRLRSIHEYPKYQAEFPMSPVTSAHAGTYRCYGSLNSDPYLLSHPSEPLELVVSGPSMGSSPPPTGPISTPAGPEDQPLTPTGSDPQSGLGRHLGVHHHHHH

EC50 [1]: 0.0428 µg/mL
Top [1]: 1.98 absorbance at 450 nm
B1: chimeric antibody ChP2-E11 (antibody, human IgG4 S228P, kappa, F234A L235A, V domains shown)
VH: QVQLQQSGPELVKPGASVKISCKASAYTFTDYYINWVKQRPGQGLEWIGWIFPGSGSTYYNEKFKGKATLTVDKSSSTAYMLVSSLTSEDSAVYFCARSGTLVAPYAMDYWGQGTSVTVSS
VL: SIVMTQTPKFLLVSAGDRVTITCKASQSVSNDVAWYQQKPGQSPKLLIYYTSNRYTGVPDRFTGSGYGTDFTFTISTVQAEDLAVYFCQQDYSFPLTFGAGTKLEIKR
notes: Murine variable regions with hIgG4(LALA) and CL constant regions; also called M P2-E11

Kd [2]: 3.98 nM
koff [2]: 0.0103 s⁻¹
kon [2]: 2.59e+06 M⁻¹ s⁻¹
B2: humanized antibody huP1-D7 (antibody, human IgG4 S228P, kappa, F234A L235A, V domains shown)
VH: EVQLVQSGAEVKKPGASVKVSCKASGYTFTTYGMNWVRQAPGQGLEWMGWINTYSGVPTYAEDFKGRVTMTTDTSTSTAYMELRSLRSDDTAVYYCARRTDYDGYVMDSWGQGTTVTVSS
VL: DIVMTQSPDSLAVSLGERATINCKSSQSLFYSGNQKNYLAWYQQKPGQSPKLLLYWASTRESGVPDRFSGSGSGTDFTLTISSLQAEDVAVYYCQQYFSYPPTFGGGTKVEIKR
notes: Full chains; also called P1-D7H1L1

binding result [3]: binds
B3: chimeric antibody ChP1-F7 (antibody, human IgG4 S228P, kappa, F234A L235A, V domains shown)
VH: DVQLQESGPGLVKPSQSLSLTCSVTGYSITSGYYWNWIRQFPGNKLEWMGYISYDGNNYYNPSLKNRISVTRDTSKNQFFLKLNSVTSEDTATYYCAREDGSYSDYDGFAYWGQGTLVTVSS
VL: DIQMTQSPASLSVSVGETVTITCRANENIYSNLAWYQQKQGKSPQLLVYAATNLADGVSSRFSGSGSGTQYSLRINSLQSEDFGSYYCQQFWGTPYTFGGGTKLEIKR
notes: Murine variable regions with hIgG4(LALA) and CL constant regions; also called M P1-F7

binding result [3]: binds
B4: chimeric antibody ChP2-G9 (antibody, human IgG4 S228P, kappa, F234A L235A, V domains shown)
VH: DVQLQESGPGLVKPSQSLSLACSVTGSSITSGYYWNWIRQFPGNKLEWMGYLSYDGSNNYNPSLKNRISITRDTSKSQFFLKLNSVTPEDTATYYCAREGAHYSGTLSWFAYWGQGTLVTVSS
VL: B3 VL with N26S, S59P, R74K, Q90H, G93D
notes: Murine variable regions with hIgG4(LALA) and CL constant regions; also called M P2-G9

binding result [3]: binds
B5: chimeric antibody ChP2-F10 (antibody, human IgG4 S228P, kappa, F234A L235A, V domains shown)
VH: DVQLQESGPGLVKPSQSLSLTCSVTGYSIASGYYWNWIRQFPGNKLEWMGYITYDGSNNYNPSLKNRISITRDTSKNQFFLKLNSVTTEDTATYYCAREYSYGSTLSWFAYWGQGTLVTVSS
VL: B3 VL with V13I, N26S, S59P, R74K, Q90H, G93D
notes: Murine variable regions with hIgG4(LALA) and CL constant regions; also called M P2-F10

binding result [3]: binds
B6: chimeric antibody ChP2-E3 (antibody, human IgG4 S228P, kappa, F234A L235A, V domains shown)
VH: EVQLQQSGPELVKPGASVKISCKASGYTFTDYYMNWVKQSHGKSLEWIGDINPNNGGTSYNQKFKGKATLTVDKSSSTAYMELRSLTSEDSTVYYCARGGVTTVVATYWYFDVWGTGTTVTVSS
VL: B3 VL with N26S, L54V, S59P, S65G, R74K, G93D, Y96F, G100S
notes: Murine variable regions with hIgG4(LALA) and CL constant regions; also called M P2-E3

binding result [3]: binds
B7: chimeric antibody ChP2-C7 (antibody, human IgG4 S228P, kappa, F234A L235A, V domains shown)
VH: EVQLQQSGPELVKPGTSVKMSCKASGYTFTDYSMHWVRQSHGKSLEWIGYFNPNNGDTIYNQKFKGKATLTVNKSSSTAYMELRSLTSDDSAVYYCAREDSVSTNAWDGALDYWGQGTSVTVSS
VL: B3 VL with A25T, N26S, A50G, S59P, R74K, Q90H, G93D, T94I, Y96W, K103T
notes: Murine variable regions with hIgG4(LALA) and CL constant regions; also called M P2-C7

EC50 [4]: 0.0487 µg/mL
Top [4]: 1.53 absorbance at 450 nm
B8: chimeric antibody ChP2-B9 (antibody, human IgG4 S228P, kappa, F234A L235A, V domains shown)
VH: EVQLQQSGPELVKPGASVKISCKASGYTFTDYFMNWVKLSHGKSLEWIGDINPNNGGTSYNQRFKDKVTLTVDKSSSTAYMELRSLTSDSSAVYFCARNGYYDSNYLSYFDVWGTGTTVTVSS
VL: B3 VL with N26S, A50G, S59P, R74K, Q90H, G93D
notes: Murine variable regions with hIgG4(LALA) and CL constant regions; also called M P2-B9

EC50 [4]: 0.0658 µg/mL
Top [4]: 1.65 absorbance at 450 nm
B9: chimeric antibody ChP2-E10 (antibody, human IgG4 S228P, kappa, F234A L235A, V domains shown)
VH: DVQLQESGPGLVKPSQSLSLTCSVTGYSITSGYYWNWIRQFPGNKLEWMGYMSYEGTNNSNPSLKNRISITRDTSKNQFFLKLNSVTTEDTARYYCARERAYYYGTLGAMDYWGQGTSVTVSS
VL: B3 VL with N26S, S59P, R74K, L78M, Q90H, G93D, Y96F, G100S
notes: Murine variable regions with hIgG4(LALA) and CL constant regions; also called M P2-E10

binding result [3]: binds
B10: chimeric antibody ChP1-G7 (antibody, human IgG4 S228P, kappa, F234A L235A, V domains shown)
VH: DVQLQESGPGLVKPSQSLSLTCSVTGYSITSGYYWNWIRQFPENKLEWMGYISYDGGNNYNPFLKNRISITRDTSKNQFFLNLNSVTIEDTATYYCAREGGSSWEYYGMDYWGQGTSVTVSS
VL: B3 VL with N26S, S31R, K42H, V48L, S59P, R74K, T94S
notes: Murine variable regions with hIgG4(LALA) and CL constant regions; also called M P1-G7

binding result [3]: binds
B11: chimeric antibody ChP1-D10 (antibody, human IgG4 S228P, kappa, F234A L235A, V domains shown)
VH: QVQLKQSGPGLVQPSQSLSITCTVSGFSLTTYGVHWVRQSPGKGLEWLGVIWSGGNTDSNAAFISRLSISKDNSKSQVFFKMNNLQADDTAIYYCARYSYAMDYWGQGTSVTVSS
VL: DIVMTQSHKFMSTSVGDRVSITCKASQDVSNGVAWYQQKPGQSPKVLIYAASYRYTGVPDRFTGSGSGTDFTFTIGSVQAEDLALYYCQQHYSTPFTFGSGTMLEIKR
notes: Murine variable regions with hIgG4(LALA) and CL constant regions; also called M P1-D10

EC50 [4]: 0.0493 µg/mL
Top [4]: 1.16 absorbance at 450 nm
B12: chimeric antibody ChP2-C2 (antibody, human IgG4 S228P, kappa, F234A L235A, V domains shown)
VH: QVQLKQSGPGLVQPSQSLSITCTVSGFSLTSYGVHWVRQSPGKGLEWLGVIWSGGHTDLNAAFISRLSINKDNSKSQVFFKMNSLQGDDTAIYYCARNGYGGCLDYWGQGTTLTVSS
VL: DIVMTQSHKFMSTSVGDRVSITCKAGQDVSIAVAWYQQKPGQSPQLLIYSASYRYTGVPDRFTGSGSGTDFTFAISSVQAEDLAVYYCQQYYSIPPSFGAGTKLEIKR
notes: Murine variable regions with hIgG4(LALA) and CL constant regions; also called M P2-C2
